Measurements taken from US20040171074A1, “Structures of substrate binding pockets of SCF complexes” (MOUNT SINAI HOSPITAL, priority 2002, published 2004).
Residue numbers refer to the chain shown, from its start. Numbers in names are those of the source. Entries after “also recorded” stand apart in the source; their conditions may differ.

Tests used:
cdc4Δ strain = test: plasmid shuffle assay: complementation of a cdc4Δ strain by CDC4 alleles; assay type: cell-based, yeast; settings: viability of cdc4Δ strain on 5-FOA, 2 days at 30° C.
Description: (§1) All mutants on a TRP1 ARS CEN plasmid were transformed into a cdc4Δ strain (MT 1259) containing a wildtype copy of CDC4 on a URA3 ARS CEN plasmid. Cells were plated on either Trp^−Ura^− or 5-FOA medium for 2 days at 30° C. Viable cells on 5-FOA were grown in Trp medium and transformed with either wild type GAL1-SIC1, GAL1-SIC T45A, or GAL1-SIC T33V on a LEU2 ARS CEN pasmid. Cells were then plated on Leu- Trp-plates containing either glucose or galactose and incubated for 2 days at 30° C.
(§2) Cdc4 functional assays. CDC4 mutant alleles were assessed for complementation of a cdc4A strain in a plasmid shuffle assay (Nash et al., 2001). Sensitivity to SIC1 dosage was determined by transformation with pMT837 (GAL1-SIC1) or pMT767 (GAL1-SIC1^T33V) and plating on glucose medium or galactose medium. For in vitro capture of phospho-Sic1 by Cdc4, 0.5 μg of bacterially-expressed ^HIS6Sic1 was phosphorylated with immobilized Cln2-Cdc28 kinase from baculovirus-infected Sf9 cells and then incubated with 1 μg of immobilized wild type or mutant Cdc4^263-744-GST-Skp1, at 4° C. for 1 hr, washed 4 times and visualized by anti-Sic1 immunoblot. For isoelectric focusing (IEF)-2D gel analyses, an evenly distributed pool of phospho-Sic1 isoforms was generated by combining different time points in a Sic1 phosphorylation reaction. 2.5 μg of the phospho-Sic1 pool was bound to 5 μg of immobilized wild type or mutant Cdc4^1-744-GST-Skp1. Captured isoforms were separated by denaturing IEF-2D gel electrophoresis using pH3-10NL Immobiline gel strips (Amersham) and visualized by anti-Sic1 immunoblot. Alternatively, the pool of phospho-Sic1 isoforms was incubated in solution with a ubiquitination reaction mix containing ATP, ubiquitin, yeast E1, Cdc34 and either wild type or mutant SCF^Cdc4 complex, composed of a 1:1 ratio of bacterial Cdc4-GST-Skp1 and insect cell-produced Cdc53-Rbx1, at 30° C. for 1 h as previously described (Nash et al., 2001).

phospho-Sic1 = test: P-Sic1 pull down: in vitro capture of phospho-Sic1 on immobilized wild type or mutant Cdc4-GST-Skp1, anti-Sic1 immunoblot; assay type: binding, yeast; settings: Sic1 phosphorylated with Cln2-Cdc28, captured onto GST-Skp1/Cdc4 resin, anti-Sic1 detection
Description: (§3) Mutational analysis of the CPD binding surface. Mutants were tested in vitro by ability to bind phosphorylated Sic1 and then captured onto GST-Skp1/Cdc4 resin and detected with anti-sic1 antibody. Mutants were tested in vivo by ability to degrade GAL1-SIC1 or various phosphorylation mutants. Sites are as follows: 3=Thr 33, Thr 45, Ser 76; 4=Thr 5, Thr 33, Thr 45, Ser 76; 5=Thr 2, Thr 5, Thr 33, Thr 45, Ser 76; 6=Thr 2, Thr 5, Thr 33, Thr 45, Ser 69, Ser 76; 7=Thr 2, Thr 5, Thr 33, Thr 45, Ser 69, Ser 76, Ser 80. GAL1-SIC1 plasmids were transformed into a cdc4Δ strain containing a copy of CDC4 on a TRP1 ARS CEN plasmid. Strains were incubated for 2 days at 30° C.
Bacterially expressed His6-Sic1 was phosphorylated with Cln2-Cdc28 kinase purified from baculovirus infected Sf9 cells as described before (Nature paper). 1 ug of WT or mutant Cdc4-GST-Skp1, immoblized on GSH-Sepharose resin, was incubated with 0.5 ug phospho-Sic1 at 4 C for 1 h and washed 4 times. Captured complexes were resolved on SDS-PAGE and Sic1 visualized by anti-Sic1 Western blotting and ECL. For IEF-2D analysis, several Sic1 phosphorylation reactions were carried out for different time periods to obtain a spectrum of Sic1 that were phosphorylated at different numbers of its nine CDK sites. This pool of phospho-Sic1 (2.5 ug) was incubated with 5 μg of WT or mutant Cdc4-GST-Skp1 as described above. Different phosphorylation states of Sic1 were separated by denaturing isoelectric focusing (IEF)-2D gel electrophoresis and visualized by anti-Sic1 Western blotting and ECL. IEF was performed using pH 3-10NL Immobiline gel strips and IPGphore IEF system (Amersham pharmacia).
as §2

Skp1 = target: T1, Skp1 (Saccharomyces cerevisiae, UniProt P52286); test: Skp1 binding in vitro (pull down); parameters: species or system yeast
T1 construct: GST (N); made in house; host or cells: bacteria
T1 sequence (P52286 2-194 limits assumed): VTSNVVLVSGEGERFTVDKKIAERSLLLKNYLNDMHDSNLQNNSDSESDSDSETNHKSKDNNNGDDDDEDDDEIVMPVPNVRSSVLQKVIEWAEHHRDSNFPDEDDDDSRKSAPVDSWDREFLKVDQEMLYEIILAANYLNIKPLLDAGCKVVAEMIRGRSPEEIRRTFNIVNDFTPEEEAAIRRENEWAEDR
From the text: In order to probe the functional importance of amino acid residues on the highly conserved peptide binding surface, a panel of Cdc4 mutants (both single and double mutant) were generated and tested each for its ability to bind phospho Sic1 and Skp1 in vitro using a pull down assay and for its ability to substitute for wt-cdc4 in vivo using a cell viability assay. Of 12 single site mutants tested, only Arg 467. Arg485Ala Arg534Ala, and Trp 426 abolished both cell viability in vivo and phosphoSic1 binding in vitro. Together, these residues compose most of the interaction surface with the pThr, Pro CPD core. […] Presumably in the context of the full SCF complex in vivo this mutant is sufficiently well behaved to bind phospho Sic1.

[1] = system: cdc4Δ strain overexpressing SIC1; test: sensitivity to SIC1 dosage: GAL1-SIC1 overexpression in strains bearing CDC4 alleles; assay type: cell-based, yeast; settings: for gal Sic1T33V: GAL1-SIC1 T33V (partially stabilized Sic1); for gal Sic1T33V / gal Sic1T45A / gal Sic1 wt: galactose, 2 days at 30° C.; for gal Sic1T45A: GAL1-SIC1 T45A; for gal Sic1 wt: GAL1-SIC1 wild type; for viability / sensitivity to increased SIC1 dosage: Sic1 wt or stabilized Sic1(T33V) or Sic1(T45A) over-expressed under a galactose promoter
Description: as §3, §1
Since the cell viability assay nay be masking subtle functional roles for the conserved Cdc4 residues, function was assayed in vivo under more stringent conditions in which Sic1 wt or the stabilized mutants, Sic1 (T33V) or Sic1(T45A) are over-expressed under a galactose promoter. This should amplify defects in cdc4 function. Under these conditions, Trp 717, Tyr 548 and the double mutant K404D/R443D are lethal showing that these residues are in fact important for functions
as §2

B1: R467A: mutant cdc4 polypeptide (protein)
chain: MGSFPLAEFPLRDIPVPYSYRVSGGIASSGSVTALVTAAGTHRNSSTAKTVETEDGEEDIDEYQRKRAAGSGESTPERSDFKRVKHDNHKTLHPVNLQNTGAASVDNDGLHNLTDISNDAEKLLMSVDDGSAAPSTLSVNMGVASHNVAAPTTVNAATITGSDVSNNVNSATINNPMEEGALPLSPTASSPGTTTPLAKTTKTINNNNNIADLIESKDSIISPEYLSDEIFSAINNNLPHAYFKNLLFRLVANMDRSELSDLGTLIKDNLKRDLITSLPFEISLKIFNYLQFEDIINSLGVSQNWNKIIRKSTSLWKKLLISENFVSPKGFNSLNLKLSQKYPKLSQQDRLRLSFLENIFILKNWYNPKFVPQRTTLRGHMTSVITCLQFEDNYVITGADDKMIRVYDSINKKFLLQLSGHDGGVWALKYAHGGILVSGSTDRTVRVWDIKKGCCTHVFKGHNSTVACLDIVEYKNIKYIVTGSRDNTLHVWKLPKESSVPDHGEEHDYPLVFHTPEENPYFVGVLRGHMASVRTVSGHGNIVVSGSYDNTLIVWDVAQMKCLYILSGHTDRIYSTIYDHERKRCISASMDTTIRIWDLENIWNNGECSYATNSASPCAKILGAMYTLQGHTALVGLLRLSDKFLVSAAADGSIRGWDANDYSRKFSYHHTNLSAITTFYVSDNILVSGSENQFNIYNLRSGKLVHANILKDADQIWSVNFKGKTLVAAVEKDGQSFLEILDFSKASKINYVSNPVNSSSSSLESISTSLGLTRTTIIP
- shuffle (cdc4Δ strain): dead
- shuffle (cdc4Δ strain; listed as Arg 467): abolished
- shuffle (cdc4Δ strain; listed as Arg467Ala): unable
- P-Sic1 pull down (phospho-Sic1): no bind
- P-Sic1 pull down (phospho-Sic1; listed as Arg 467): abolished
- P-Sic1 pull down (phospho-Sic1; listed as Arg467Ala): unable to bind
- Skp1 binding (Skp1): fully competent

B2: R443D: mutant cdc4 polypeptide (protein)
chain: B1 chain with R443D, A467R
- gal Sic1T33V [1]: alive
- gal Sic1T45A [1]: dead
- gal Sic1 wt [1]: alive
- viability / sensitivity to increased SIC1 dosage [1]: indistinguishable from wild type
- shuffle (cdc4Δ strain): alive
- shuffle (cdc4Δ strain; listed as Arg443Asp): indistinguishable from wild type
- P-Sic1 pull down (phospho-Sic1): bind
- P-Sic1 pull down (phospho-Sic1; listed as Arg443Asp): indistinguishable from wild type

B3: Y574F: mutant cdc4 polypeptide (protein)
chain: B1 chain with A467R, Y574F
- gal Sic1T33V [1]: alive
- gal Sic1T45A [1]: dead
- gal Sic1 wt [1]: alive
- viability / sensitivity to increased SIC1 dosage [1]: indistinguishable from wild type
- shuffle (cdc4Δ strain): alive
- shuffle (cdc4Δ strain; listed as Tyr574Ala): viable
- shuffle (cdc4Δ strain; listed as Tyr574Phe): indistinguishable from wild type
- P-Sic1 pull down (phospho-Sic1): bind
- P-Sic1 pull down (phospho-Sic1; listed as Tyr574Ala): fully competent
- P-Sic1 pull down (phospho-Sic1; listed as Tyr574Phe): indistinguishable from wild type

B4: V384N: mutant cdc4 polypeptide (protein)
chain: B1 chain with V384N, A467R
- gal Sic1T33V [1]: alive
- gal Sic1T45A [1]: dead
- gal Sic1 wt [1]: alive
- viability / sensitivity to increased SIC1 dosage [1]: indistinguishable from wild type
- shuffle (cdc4Δ strain): alive
- shuffle (cdc4Δ strain; listed as Val384): viable
- shuffle (cdc4Δ strain; listed as Val384Asn): indistinguishable from wild type
- P-Sic1 pull down (phospho-Sic1): bind
- P-Sic1 pull down (phospho-Sic1; listed as Val384): fully competent
- P-Sic1 pull down (phospho-Sic1; listed as Val384Asn): indistinguishable from wild type

B5: R485A: mutant cdc4 polypeptide (protein)
chain: B1 chain with A467R, R485A
- shuffle (cdc4Δ strain): dead
- shuffle (cdc4Δ strain; listed as Arg485Ala): abolished; also recorded: unable
- P-Sic1 pull down (phospho-Sic1): no bind
- P-Sic1 pull down (phospho-Sic1; listed as Arg485Ala): abolished; also recorded: unable to bind
- Skp1 binding (Skp1): fully competent

B6: W717N: mutant cdc4 polypeptide (protein)
chain: B1 chain with A467R, W717N
- gal Sic1T33V [1]: dead
- gal Sic1T33V ([1]; listed as Trp717Asn): conferred sensitivity
- gal Sic1T45A [1]: dead
- gal Sic1 wt [1]: alive
- viability / sensitivity to increased SIC1 dosage [1]: lethal
- shuffle (cdc4Δ strain): alive
- shuffle (cdc4Δ strain; listed as Trp717): viable
- P-Sic1 pull down (phospho-Sic1): bind
- P-Sic1 pull down (phospho-Sic1; listed as Trp717): fully competent
- P-Sic1 pull down (phospho-Sic1; listed as Trp717Asn): did not overtly affect
